The values that follow come from article PMC10484741, “Human TRMT2A methylates tRNA and contributes to translation fidelity”.

The target of series [1] is T1, hTRMT2A FL (WT) (Homo sapiens, UniProt Q8IZ69 1-625).
T1 sequence: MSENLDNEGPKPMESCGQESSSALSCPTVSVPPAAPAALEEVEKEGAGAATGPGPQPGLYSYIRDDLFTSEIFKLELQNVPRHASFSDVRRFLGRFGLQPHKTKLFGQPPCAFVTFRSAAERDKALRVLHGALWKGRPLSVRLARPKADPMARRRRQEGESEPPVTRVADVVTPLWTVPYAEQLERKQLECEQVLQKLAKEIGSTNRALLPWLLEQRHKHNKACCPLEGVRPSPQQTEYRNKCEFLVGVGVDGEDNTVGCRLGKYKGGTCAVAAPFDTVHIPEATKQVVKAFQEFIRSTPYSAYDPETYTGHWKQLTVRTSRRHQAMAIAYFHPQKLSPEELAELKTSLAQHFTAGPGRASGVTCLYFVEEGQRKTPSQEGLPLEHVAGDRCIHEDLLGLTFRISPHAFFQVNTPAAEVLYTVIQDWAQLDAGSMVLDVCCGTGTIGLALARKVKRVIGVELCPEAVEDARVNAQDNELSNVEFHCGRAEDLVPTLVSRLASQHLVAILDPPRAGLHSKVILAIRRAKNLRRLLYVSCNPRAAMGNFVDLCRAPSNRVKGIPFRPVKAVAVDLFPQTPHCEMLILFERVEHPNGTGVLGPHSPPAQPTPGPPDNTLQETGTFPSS
Nature of the series: SPR; steady-state fit, apparent KD; EMSA: 50 mM HEPES-NaOH pH 7.5, 150 mM NaCl, 4% glycerol, 2.5 ng/ul poly(U), 5 nM RNA, 0-1.25 uM protein (final, as stated), 20 min room temperature; SPR: 150 mM NaCl, 50 mM HEPES-NaOH 7.5, 0.05% Tween, 25 C. The following applies: protein: recombinant; tags: N-terminal His-SUMO tag cleaved; label: 3' biotin; tRNA cloverleaf.

In series [2] the target is T2, hTRMT2A CDM (catalytic death mutant) (Homo sapiens, UniProt Q8IZ69 1-625, E76A;K104E;F113A;K242A;F409A;Q411A;D510A;C538A).
T2 sequence: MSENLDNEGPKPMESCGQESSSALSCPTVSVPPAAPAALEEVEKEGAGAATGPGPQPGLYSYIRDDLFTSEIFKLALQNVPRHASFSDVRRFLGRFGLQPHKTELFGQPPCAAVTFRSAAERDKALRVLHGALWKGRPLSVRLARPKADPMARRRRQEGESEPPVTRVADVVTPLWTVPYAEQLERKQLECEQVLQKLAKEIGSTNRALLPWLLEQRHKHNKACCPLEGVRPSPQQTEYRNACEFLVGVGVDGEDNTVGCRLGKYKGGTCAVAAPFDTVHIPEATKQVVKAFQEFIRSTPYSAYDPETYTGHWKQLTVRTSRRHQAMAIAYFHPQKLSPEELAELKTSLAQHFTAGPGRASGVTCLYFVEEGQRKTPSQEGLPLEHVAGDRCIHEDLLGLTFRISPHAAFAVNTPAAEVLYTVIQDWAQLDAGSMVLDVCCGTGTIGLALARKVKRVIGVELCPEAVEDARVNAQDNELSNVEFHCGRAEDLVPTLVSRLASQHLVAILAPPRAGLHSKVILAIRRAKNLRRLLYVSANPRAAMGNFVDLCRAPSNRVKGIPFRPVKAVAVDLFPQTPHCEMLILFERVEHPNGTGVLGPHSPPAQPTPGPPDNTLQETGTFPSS
Described as above. The note with it: protein: recombinant; tags: N-terminal His-SUMO tag cleaved; label: 3' biotin; tRNA cloverleaf.

Series [3] deals with T2, hTRMT2A CDM (catalytic death mutant). The experiment in a line: EMSA; similar to WT, nM KD range, more supershifts; poly(U) competitor; EMSA: 50 mM HEPES-NaOH pH 7.5, 150 mM NaCl, 4% glycerol, 2.5 ng/ul poly(U), 5 nM RNA, 0-1.25 uM protein (final, as stated), 20 min room temperature; SPR: 150 mM NaCl, 50 mM HEPES-NaOH 7.5, 0.05% Tween, 25 C. The note with it: protein: recombinant; tags: N-terminal His-SUMO tag cleaved; label: 5'-32P; tRNA cloverleaf. On the technique in general: Mobility shift assays separate free from complexed probe on a gel.

Series [4] addresses T1, hTRMT2A FL (WT). Nature of the series: EMSA; low nM KD range; shift already at 60 nM; poly(U) competitor; EMSA: 50 mM HEPES-NaOH pH 7.5, 150 mM NaCl, 4% glycerol, 2.5 ng/ul poly(U), 5 nM RNA, 0-1.25 uM protein (final, as stated), 20 min room temperature; SPR: 150 mM NaCl, 50 mM HEPES-NaOH 7.5, 0.05% Tween, 25 C. The following applies: protein: recombinant; tags: N-terminal His-SUMO tag cleaved; label: 5'-32P; tRNA cloverleaf.

Series [5] concerns the target T1, hTRMT2A FL (WT). The experiment in a line: size exclusion chromatography; 1:1 mix; elution shift 17.41 to 15.46 ml; EMSA: 50 mM HEPES-NaOH pH 7.5, 150 mM NaCl, 4% glycerol, 2.5 ng/ul poly(U), 5 nM RNA, 0-1.25 uM protein (final, as stated), 20 min room temperature; SPR: 150 mM NaCl, 50 mM HEPES-NaOH 7.5, 0.05% Tween, 25 C. The following applies: protein: recombinant; tags: N-terminal His-SUMO tag cleaved; tRNA cloverleaf. On the technique in general: SEC sorts molecules by how far they enter the pores of the column.

The target in series [6] is T1, hTRMT2A FL (WT). The experiment in a line: EMSA; low nM KD range; poly(U) competitor; EMSA: 50 mM HEPES-NaOH pH 7.5, 150 mM NaCl, 4% glycerol, 2.5 ng/ul poly(U), 5 nM RNA, 0-1.25 uM protein (final, as stated), 20 min room temperature; SPR: 150 mM NaCl, 50 mM HEPES-NaOH 7.5, 0.05% Tween, 25 C. The following applies: protein: recombinant; tags: N-terminal His-SUMO tag cleaved; label: 5'-32P; tRNA cloverleaf.

B1: tRNAGln-TTG, 3' biotin (structured_RNA)
RNA: GGUCCCAUGGUGUAAUGGUUAGCACUCUGGACUUUGAAUCCAGCGAUCCGAGUUCAAAUCUCGGUGGGACCUCCA
modifications: 3' biotin
On to B1, for which the Kd stood at 306 ± 60 nM in series [1] and 428 ± 71 nM in series [2].

B2: tRNAGln-TTG (structured_RNA)
RNA: GGUCCCAUGGUGUAAUGGUUAGCACUCUGGACUUUGAAUCCAGCGAUCCGAGUUCAAAUCUCGGUGGGACCUCCA
In the case of B2, the binding result in series [3] and in series [4] was “binds” each time.

B3: tRNAGln-TTG, unlabeled (structured_RNA)
RNA: GGUCCCAUGGUGUAAUGGUUAGCACUCUGGACUUUGAAUCCAGCGAUCCGAGUUCAAAUCUCGGUGGGACCUCCA
For B3, the binding result in series [5] is given as “binds”.

B4: tRNAGln U54G (structured_RNA)
RNA: GGUCCCAUGGUGUAAUGGUUAGCACUCUGGACUUUGAAUCCAGCGAUCCGAGGUCAAAUCUCGGUGGGACCUCCA
On to B4, for which the binding result in series [6] is recorded as “binds”.

B5: tRNAAla-AGC (A54) (structured_RNA)
RNA: GGGGAAUUAGCUCAGGCGGUAGAGCGCUCGCUUAGCAUGCGAGAGGUAGCGGGAUCGACGCCCGCAUUCUCCA
Regarding B5, the binding result in series [6] is “binds”.
